Usually pKd stands for the Kd on a negative log10 scale, so that one unit is a factor of ten. A high value points to a small Kd.

We go through two substances from US20170327596A1.

In assay [1] the target is pHuD peptide presented by HLA-A2 on T2 cells (human). The assay can be described thus: cell-based or functional assay.
For assay [2], the target named is HLA/pHuD complex (HLA-A0201 with the modified peptide pHuD), HLA/peptide complex used in surface plasmon resonance (human). Kind of assay: surface plasmon resonance, soluble TCR and HLA/peptide complex.
The target in assay [3] is HLA/pTax complex (HLA-A0201 with the pTax peptide of HTLV-1 Tax), HLA/peptide complex used in surface plasmon resonance (human). The assay is described as above.

pKd: −log10 of the molar value.

In assay [1], “Tax-TCR expressed on transduced Jurkat cells or primary human T cells (pMP71 retroviral construct)” showed a kinetic of CD107 upregulation of 4 h and a peptide needed to trigger a CD107 response of 10 fold.

“wild type Tax-TCR, soluble TCR molecule (HLA-A0201-restricted TCR specific for the pTax peptide of HTLV-1 Tax)”: in assay [2], the pKd was 3.91. In assay [3], this substance showed a pKd of 5.74 and a half-life t1/2 of 9.3 s.
